Experimental data from patent publication US20210017569A1, “Ligase Screening Assay” (UNIVERSITY OF DUNDEE, priority 2018, published 2021).

Target: T1, GST-MYCBP2cat (Homo sapiens, UniProt O75592)
T1 construct: GST-tagged MYCBP2cat (Ser4378-Phe4640), wt and mutants, were expressed at 16° C. overnight; made in house; host or cells: E. coli BL21-DE3
T1 sequence (O75592 4416-4678 limits assumed): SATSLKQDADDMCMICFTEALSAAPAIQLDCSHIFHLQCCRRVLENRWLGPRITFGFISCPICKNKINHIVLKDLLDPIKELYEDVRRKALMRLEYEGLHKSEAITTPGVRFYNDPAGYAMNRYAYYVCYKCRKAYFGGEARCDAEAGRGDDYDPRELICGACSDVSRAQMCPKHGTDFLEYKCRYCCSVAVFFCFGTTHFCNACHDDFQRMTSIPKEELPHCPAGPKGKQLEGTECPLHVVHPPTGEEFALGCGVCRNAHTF
Assay: Multiple turnover E2 discharge panel (threonine discharge)
Assay type: biochemical
Conditions: 17 E2s tested
Protocol: E2s were screened for threonine discharge activity with GST-MYCBP2cat as described for the amino acid panel. E2s were also incubated in the presence of threonine but in the absence of GST-MYCBP2cat. These samples provided a reference to distinguish between intrinsic E2˜Ub instability and E3-dependent discharge.

E2 partner activity with MYCBP2cat: robust activity
B1: UBE2E1: E2 conjugating enzyme (protein, UniProt P51965 2-193, looked up)
Ubiquitin-conjugating enzyme …: SDDDSRASTSSSSSSSSNQQTEKETNTPKKKESKVSMSKNSKLLSTSAKRIQKELADITLDPPPNCSAGPKGDNIYEWRSTILGPPGSVYEGGVFFLDITFTPEYPFKPPKVTFRTRIYHCNINSQGVICLDILKDNWSPALTISKVLLSICSLLTDCNPADPLVGSIATQYMTNRAEHDRMARQWTKRYAT
